These results are taken from article PMC8244417.

For assay [1], the target named is TmZIP C-terminally fused to TEV-GFP-His10. The experiment in a line: SDS-PAGE of the IMAC-pure protein.
Assay [2] deals with TmZIP N-terminally fused to His10-GFP-TEV. The experiment in a line: SDS-PAGE of the IMAC-pure protein.

Broadly, the stoichiometry N is a count of units in the complex or per binding partner. The substance “TmZIP C-terminally fused to TEV-GFP-His10 (natural protein)” returned a stoichiometry N in assay [1] of 2. On to “TmZIP N-terminally fused to His10-GFP-TEV (natural protein)”, for which the stoichiometry N in assay [2] is 2.
